To fix the notation:
B1: AAD-COUP-TFII-LBD-(144–414) [not stated] / LexA-COUP-TFII-LBD-(144–414) [not stated] (parent)
chain 1: MRREAVQRGRMPPTQPTHGQFALTNGDPLNCHSYLSGYISLLLRAEPYPTSRFGSQCMQPNNIMGIENICELAARMLFSAVEWARNIPFFPDLQITDQVALLRLTWSELFVLNAAQCSMPLHVAPLLAAAGLHASPMSADRVVAFMDHIRIFQEQVEKLKALHVDSAEYSCLKAIVLFTSDACGLSDVAHVESLQEKSQCALEEYVRSQYPNQPTRFGKLLLRLPSLRTVSSSVIEQLFFVRLVGKTPIETLIRDMLLSGSSFNWPYMAIQ
chain 2: B1 chain 1

The variants in this assay derive from B1. In words: yeast two-hybrid. The following applies: with LexA-COUP-TFII-LBD-(144–414);; read off a plot.
Take chain 1 MRREAVQRGRMPPTQPTHGQFALTNGDPLNCHSYLSGYISLLLRAEPYPTSRFGSQCMQPNNIMGIENICELAARMLFSAVEWARNIPFFPDLQITDQVALLALTWSELFVLNAAQCSMPLHVAPLLAAAGLHASPMSADRVVAFMDHIRIFQEQVEKLKALHVDSAEYSCLKAIVLFTSDACGLSDVAHVESLQEKSQCALEEYVRSQYPNQPTRFGKLLLRLPSLRTVSSSVIEQLFFVRLVGKTPIETLIRDMLLSGSSFNWPYMAIQ [chain 1 R103A]: the response worked out at 470 nmol/mg/min. On to chain 1 MRREAVQRGRMPPTQPTHGQFALTNGDPLNCHSYLSGYISLLLRAEPYPTSRFGSQCMQPNNIMGIENICELAARMLFSAVEWARNIPFFPDLQITDQAALLRLTWSELFVLNAAQCSMPLHVAPLLAAAGLHASPMSADRVVAFMDHIRIFQEQVEKLKALHVDSAEYSCLKAIVLFTSDACGLSDVAHVESLQEKSQCALEEYVRSQYPNQPTRFGKLLLRLPSLRTVSSSVIEQLFFVRLVGKTPIETLIRDMLLSGSSFNWPYMAIQ [chain 1 V99A], for which the response turned out to be 460 nmol/mg/min.

In the case of chain 1 MRREAVQRGRMPPTQPTHGQFALTNGDPLNCHSYLSGYISLLLRAEPYPTSRFGSQCMQPNNIMGIENICELAARMLASAVEWARNIPFFPDLQITDQVALLRLTWSELFVLNAAQCSMPLHVAPLLAAAGLHASPMSADRVVAFMDHIRIFQEQVEKLKALHVDSAEYSCLKAIVLFTSDACGLSDVAHVESLQEKSQCALEEYVRSQYPNQPTRFGKLLLRLPSLRTVSSSVIEQLFFVRLVGKTPIETLIRDMLLSGSSFNWPYMAIQ [chain 1 F78A], the response turned out to be 410 nmol/mg/min.

Regarding chain 1 MRREAVQRGRMPPTQPTHGQFALTNGDPLNCHSYLSGYISLLLRAEPYPTSRFGSQCMQPNNIMGIENICELAARMLFSAVEWARNIPFFPDLQATDQVALLRLTWSELFVLNAAQCSMPLHVAPLLAAAGLHASPMSADRVVAFMDHIRIFQEQVEKLKALHVDSAEYSCLKAIVLFTSDACGLSDVAHVESLQEKSQCALEEYVRSQYPNQPTRFGKLLLRLPSLRTVSSSVIEQLFFVRLVGKTPIETLIRDMLLSGSSFNWPYMAIQ [chain 1 I95A], the response is 500 nmol/mg/min.

Consider chain 1 MRREAVQRGRMPPTQPTHGQFALTNGDPLNCHSYLSGYISLLLRAEPYPTSRFGSQCMQPNNIMGIENICELAARMLFSAVEWAANIPFFPDLQITDQVALLRLTWSELFVLNAAQCSMPLHVAPLLAAAGLHASPMSADRVVAFMDHIRIFQEQVEKLKALHVDSAEYSCLKAIVLFTSDACGLSDVAHVESLQEKSQCALEEYVRSQYPNQPTRFGKLLLRLPSLRTVSSSVIEQLFFVRLVGKTPIETLIRDMLLSGSSFNWPYMAIQ [chain 1 R85A], for which the response was found to be 390 nmol/mg/min.

The record behind these values is PMC3834829, “A signature motif mediating selective interactions of BCL11A with the NR2E/F subfamily of orphan nuclear receptors” (Nucleic Acids Research, 2013).
